# B1: human TFIIIC subunit TFIIIC110 (natural protein)
# chain: MDTCGVGYVALGEAGPVGNMTVVDSPGQEVLNQLDVKTSSEMTSAEASVEMSLPTPLPGFEDSPDQRRLPPEQESLSRLEQPDLSSEMSKVSKPRASKPGRKRGGRTRKGPKRPQQPNPPSAPLVPGLLDQSNPLSTPMPKKRGRKSKAELLLLKLSKDLDRPESQSPKRPPEDFETPSGERPRRRAAQVALLYLQELAEELSTALPAPVSCPEGPKVSSPTKPKKIRQPAACPGGEEVDGAPRDEDFFLQVEAEDVEESEGPSESSSEPEPVVPRSTPRGSTSGKQKPHCRGMAPNGLPNHIMAPVWKCLHLTKDFREQKHSYWEFAEWIPLAWKWHLLSELEAAPYLPQEEKSPLFSVQREGLPEDGTLYRINRFSSITAHPERWDVSFFTGGPLWALDWCPVPEGAGASQYVALFSSPDMNETHPLSQLHSGPGLLQLWGLGTLQQESCPGNRAHFVYGIACDNGCIWDLKFCPSGAWELPGTPRKAPLLPRLGLLALACSDGKVLLFSLPHPEALLAQQPPDAVKPAIYKVQCVATLQVGSMQATDPSECGQCLSLAWMPTRPHQHLAAGYYNGMVVFWNLPTNSPLQRIRLSDGSLKLYPFQCFLAHDQAVRTLQWCKANSHFLVSAGSDRKIKFWDLRRPYEPINSIKRFLSTELAWLLPYNGVTVAQDNCYASYGLCGIHYIDAGYLGFKAYFTAPRKGTVWSLSGSDWLGTIAAGDISGELIAAILPDMALNPINVKRPVERRFPIYKADLIPYQDSPEGPDHSSASSGVPNPPKARTYTETVNHHYLLFQDTDLGSFHDLLRREPMLRMQEGEGHSQLCLDRLQLEAIHKVRFSPNLDSYGWLVSGGQSGLVRIHFVRGLASPLGHRMQLESRAHFNAMFQPSSPTRRPGFSPTSHRLLPTP
# notes: TFIIIC110, subunit of human TFIIIC; No truncation is described; also called τ91 in yeast (homolog); GTF3C2; source: Sf21 insect cells, baculovirus, coexpressed with the other five hTFIIIC subunits; purified (anti-FLAG M2 agarose, Capto HiRes Q)
# B2: human TFIIIC subunit TFIIIC102 (natural protein)
# chain: MSGFSPELIDYLEGKISFEEFERRREERKTREKKSLQEKGKLSAEENPDDSEVPSSSGINSTKSQDKDVNEGETSDGVRKSVHKVFASMLGENEDDEEEEEEEEEEEEEEETPEQPTAGDVFVLEMVLNRETKKMMKEKRPRSKLPRALRGLMGEANIRFARGEREEAILMCMEIIRQAPLAYEPFSTLAMIYEDQGDMEKSLQFELIAAHLNPSDTEEWVRLAEMSLEQDNIKQAIFCYTKALKYEPTNVRYLWERSSLYEQMGDHKMAMDGYRRILNLLSPSDGERFMQLARDMAKSYYEANDVTSAINIIDEAFSKHQGLVSMEDVNIAAELYISNKQYDKALEIITDFSGIVLEKKTSEEGTSEENKAPENVTCTIPDGVPIDITVKLMVCLVHLNILEPLNPLLTTLVEQNPEDMGDLYLDVAEAFLDVGEYNSALPLLSALVCSERYNLAVVWLRHAECLKALGYMERAAESYGKVVDLAPLHLDARISLSTLQQQLGQPEKALEALEPMYDPDTLAQDANAAQQELKLLLHRSTLLFSQGKMYGYVDTLLTMLAMLLKVAMNRAQVCLISSSKSGERHLYLIKVSRDKISDSNDQESANCDAKAIFAVLTSVLTKDDWWNLLLKAIYSLCDLSRFQEAELLVDSSLEYYSFYDDRQKRKELEYFGLSAAILDKNFRKAYNYIRIMVMENVNKPQLWNIFNQVTMHSQDVRHHRFCLRLMLKNPENHALCVLNGHNAFVSGSFKHALGQYVQAFRTHPDEPLYSFCIGLTFIHMASQKYVLRRHALIVQGFSFLNRYLSLRGPCQESFYNLGRGLHQLGLIHLAIHYYQKALELPPLVVEGIELDQLDLRRDIAYNLSLIYQSSGNTGMAQTLLYTYCSI
# notes: TFIIIC102, subunit of human TFIIIC; No truncation is described; also called τ131 in yeast (homolog); GTF3C3; source: Sf21 insect cells, baculovirus, coexpressed with the other five hTFIIIC subunits; purified (anti-FLAG M2 agarose, Capto HiRes Q)
# B3: human TFIIIC subunit TFIIIC90 (natural protein)
# chain: MNTADQARVGPADDGPAPSGEEEGEGGGEAGGKEPAADAAPGPSAAFRLMVTRREPAVKLQYAVSGLEPLAWSEDHRVSVSTARSIAVLELICDVHNPGQDLVIHRTSVPAPLNSCLLKVGSKTEVAECKEKFAASKDPTVSQTFMLDRVFNPEGKALPPMRGFKYTSWSPMGCDANGRCLLAALTMDNRLTIQANLNRLQWVQLVDLTEIYGERLYETSYRLSKNEAPEGNLGDFAEFQRRHSMQTPVRMEWSGICTTQQVKHNNECRDVGSVLLAVLFENGNIAVWQFQLPFVGKESISSCNTIESGITSPSVLFWWEYEHNNRKMSGLIVGSAFGPIKILPVNLKAVKGYFTLRQPVILWKEMDQLPVHSIKCVPLYHPYQKCSCSLVVAARGSYVFWCLLLISKAGLNVHNSHVTGLHSLPIVSMTADKQNGTVYTCSSDGKVRQLIPIFTDVALKFEHQLIKLSDVFGSVRTHGIAVSPCGAYLAIITTEGMINGLHPVNKNYQVQFVTLKTFEEAAAQLLESSVQNLFKQVDLIDLVRWKILKDKHIPQFLQEALEKKIESSGVTYFWRFKLFLLRILYQSMQKTPSEALWKPTHEDSKILLVDSPGMGNADDEQQEEGTSSKQVVKQGLQERSKEGDVEEPTDDSLPTTGDAGGREPMEEKLLEIQGKIEAVEMHLTREHMKRVLGEVYLHTWITENTSIPTRGLCNFLMSDEEYDDRTARVLIGHISKKMNKQTFPEHCSLCKEILPFTDRKQAVCSNGHIWLRCFLTYQSCQSLIYRRCLLHDSIARHPAPEDPDWIKRLLQSPCPFCDSPVF
# notes: TFIIIC90, subunit of human TFIIIC; coding gene from DNASU, codon-optimized for insect cells; No truncation is described; also called τ60 in yeast (homolog); source: Sf21 insect cells, baculovirus, coexpressed with the other five hTFIIIC subunits; purified (anti-FLAG M2 agarose, Capto HiRes Q)
# B4: human TFIIIC subunit TFIIIC63 (natural protein)
# chain: MAAEAADLGLGAAVPVELRRERRMVCVEYPGVVRDVAKMLPTLGGEEGVSRIYADPTKRLELYFRPKDPYCHPVCANRFSTSSLLLRIRKRTRRQKGVLGTEAHSEVTFDMEILGIISTIYKFQGMSDFQYLAVHTEAGGKHTSMYDKVLMLRPEKEAFFHQELPLYIPPPIFSRLDAPVDYFYRPETQHREGYNNPPISGENLIGLSRARRPHNAIFVNFEDEEVPKQPLEAAAQTWRRVCTNPVDRKVEEELRKLFDIRPIWSRNAVKANISVHPDKLKVLLPFIAYYMITGPWRSLWIRFGYDPRKNPDAKIYQVLDFRIRCGMKHGYAPSDLPVKAKRSTYNYSLPITVKKTSSQLVTMHDLKQGLGPSGTSGARKPASSKYKLKDSVYIFREGALPPYRQMFYQLCDLNVEELQKIIHRNDGAENSCTERDGWCLPKTSDELRDTMSLMIRQTIRSKRPALFSSSAKADGGKEQLTYESGEDEEDEEEEEEEEEDFKPSDGSENEMETEILDYV
# notes: TFIIIC63, subunit of human TFIIIC; coding gene from DNASU, codon-optimized for insect cells; No truncation is described; also called τ95 in yeast (homolog); GTC3C5 (so in the source); source: Sf21 insect cells, baculovirus, coexpressed with the other five hTFIIIC subunits; purified (anti-FLAG M2 agarose, Capto HiRes Q)
# B5: human TFIIIC subunit TFIIIC35 (natural protein)
# chain: MAAAADERSPEDGEDEEEEEQLVLVELSGIIDSDFLSKCENKCKVLGIDTERPILQVDSCVFAGEYEDTLGTCVIFEENVEHADTEGNNKTVLKYKCHTMKKLSMTRTLLTEKKEGEENIGGVEWLQIKDNDFSYRPNMICNFLHENEDEEVVASAPDKSLELEEEEIQMNDSSNLSCEQEKPMHLEIEDSGPLIDIPSETEGSVFMETQMLP
# notes: TFIIIC35, subunit of human TFIIIC; the ordered GTF3C6 gene encoded a serine in position 1, which was replaced by methionine; No truncation is described; also called τ55 in yeast (homolog); GTF3C6; source: Sf21 insect cells, baculovirus, coexpressed with the other five hTFIIIC subunits; purified (anti-FLAG M2 agarose, Capto HiRes Q)
# How the values were obtained:
# [1] = target: the molecule itself; test: cryo-EM structure; purified hTFIIIC (3.17 μM) alone or with human TRR-TCT3-2 tRNA gene DNA at a 1:1 molar ratio; EM buffer 20 mM Hepes pH 8, 225 mM KCl, 2 mM MgCl2, 5 mM DTT; 0.1% octyl-β-glucoside; separate reconstructions of τA and of dimeric τB
# [2] = target: T1, human TFIIIC subunit TFIIIC220 (human, UniProt Q12789 1-2109); test: mass photometry; purified hTFIIIC alone; 1 μl of sample at 400 nM added to 19 μl of 20 mM Hepes pH 8, 150 mM KCl, 2 mM MgCl2, 5 mM DTT; Refeyn TwoMP; nanomolar concentrations; conditions: both partners purified
# T1 construct: TFIIIC220, largest subunit of human TFIIIC; 2109 amino acids as printed; No truncation is described; the expected mass of 624 kDa is that of the intact complex; also called τ138 in yeast (homolog); GTF3C1; source: Sf21 insect cells, baculovirus, coexpressed with the other five hTFIIIC subunits; purified (anti-FLAG M2 agarose, Capto HiRes Q); not shown: 3x FLAG, C-terminal, kept
# [3] = target: B4; test: cryo-EM structure; purified hTFIIIC (3.17 μM) alone or with human TRR-TCT3-2 tRNA gene DNA at a 1:1 molar ratio; EM buffer 20 mM Hepes pH 8, 225 mM KCl, 2 mM MgCl2, 5 mM DTT; 0.1% octyl-β-glucoside; separate reconstructions of τA and of dimeric τB; conditions: both partners purified
# T1 sequence (Q12789 whole entry, the tested form may be a part): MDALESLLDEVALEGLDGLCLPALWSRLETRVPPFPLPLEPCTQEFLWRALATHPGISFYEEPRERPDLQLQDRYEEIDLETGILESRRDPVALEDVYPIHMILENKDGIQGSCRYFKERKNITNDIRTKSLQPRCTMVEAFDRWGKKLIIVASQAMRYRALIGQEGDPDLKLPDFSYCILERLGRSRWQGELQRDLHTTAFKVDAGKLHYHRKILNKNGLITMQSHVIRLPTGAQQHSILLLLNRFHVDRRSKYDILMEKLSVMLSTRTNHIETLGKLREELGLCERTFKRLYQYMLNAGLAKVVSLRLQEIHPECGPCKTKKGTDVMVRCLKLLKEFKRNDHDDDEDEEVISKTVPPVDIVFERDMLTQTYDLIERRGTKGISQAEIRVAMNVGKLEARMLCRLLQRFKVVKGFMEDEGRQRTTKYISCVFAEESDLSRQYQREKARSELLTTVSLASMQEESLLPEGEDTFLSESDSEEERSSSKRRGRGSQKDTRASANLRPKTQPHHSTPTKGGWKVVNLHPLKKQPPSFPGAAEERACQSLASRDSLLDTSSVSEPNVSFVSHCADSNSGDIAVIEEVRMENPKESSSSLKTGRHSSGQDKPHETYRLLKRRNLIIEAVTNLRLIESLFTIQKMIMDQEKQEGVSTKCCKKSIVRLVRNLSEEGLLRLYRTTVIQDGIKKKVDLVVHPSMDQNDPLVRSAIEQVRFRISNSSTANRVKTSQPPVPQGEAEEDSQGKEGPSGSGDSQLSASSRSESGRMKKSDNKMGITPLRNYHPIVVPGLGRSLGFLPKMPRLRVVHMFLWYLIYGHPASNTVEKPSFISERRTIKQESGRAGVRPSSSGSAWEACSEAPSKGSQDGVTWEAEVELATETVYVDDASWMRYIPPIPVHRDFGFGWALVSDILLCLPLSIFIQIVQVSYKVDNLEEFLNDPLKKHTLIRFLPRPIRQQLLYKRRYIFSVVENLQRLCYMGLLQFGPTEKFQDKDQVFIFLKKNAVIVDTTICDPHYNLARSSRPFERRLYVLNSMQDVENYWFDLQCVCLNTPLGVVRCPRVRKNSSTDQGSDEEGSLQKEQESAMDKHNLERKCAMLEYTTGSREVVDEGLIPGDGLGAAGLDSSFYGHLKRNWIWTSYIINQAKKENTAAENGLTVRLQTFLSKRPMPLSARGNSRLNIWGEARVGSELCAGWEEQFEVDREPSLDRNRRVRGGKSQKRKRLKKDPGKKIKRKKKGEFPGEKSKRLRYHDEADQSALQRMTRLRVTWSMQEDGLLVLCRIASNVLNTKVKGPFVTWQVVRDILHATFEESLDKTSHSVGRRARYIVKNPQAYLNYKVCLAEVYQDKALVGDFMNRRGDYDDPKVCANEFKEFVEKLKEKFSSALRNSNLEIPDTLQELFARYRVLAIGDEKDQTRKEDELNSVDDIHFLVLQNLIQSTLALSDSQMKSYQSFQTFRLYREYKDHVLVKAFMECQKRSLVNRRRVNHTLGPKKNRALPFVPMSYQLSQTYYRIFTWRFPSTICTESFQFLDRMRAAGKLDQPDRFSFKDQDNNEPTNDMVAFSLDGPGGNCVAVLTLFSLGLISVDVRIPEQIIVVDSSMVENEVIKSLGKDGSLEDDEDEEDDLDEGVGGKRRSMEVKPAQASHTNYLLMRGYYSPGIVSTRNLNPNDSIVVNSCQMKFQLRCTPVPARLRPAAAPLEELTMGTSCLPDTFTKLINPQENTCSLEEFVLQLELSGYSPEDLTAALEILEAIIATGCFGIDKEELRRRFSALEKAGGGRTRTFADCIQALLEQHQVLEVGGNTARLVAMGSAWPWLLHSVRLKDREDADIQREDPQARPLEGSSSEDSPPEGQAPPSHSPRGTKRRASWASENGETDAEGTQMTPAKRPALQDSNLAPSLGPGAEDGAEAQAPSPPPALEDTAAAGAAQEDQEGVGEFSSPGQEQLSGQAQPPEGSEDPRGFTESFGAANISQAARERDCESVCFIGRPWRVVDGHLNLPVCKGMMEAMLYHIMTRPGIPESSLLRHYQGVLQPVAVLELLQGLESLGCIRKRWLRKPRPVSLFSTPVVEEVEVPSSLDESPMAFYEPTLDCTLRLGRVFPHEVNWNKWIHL
binder,measurement,setting,value
B1,stoichiometry N,[1],2
same,binding result,[2],binds
B2,binding result,[2],binds
B3,binding result,[2],binds
B4,binding result,[2],binds
B5,binding result,[3],binds
same,binding result,[2],binds

# Source: paper PMC11811891, “Structural insights into human TFIIIC promoter recognition” (Science Advances, 2023)
